{"source": "patent US20130071374A1", "about": "(UNIVERSITY OF MEDICINE AND DENTISTRY OF NEW JERSEY, published 2013)", "key": {"[1]": {"molecular_target": "T1, PemK(His)6 (E. coli (plasmid R100), UniProt P13976 24-133)", "T1 construct": "also called Kid", "assay": "co-purification on Ni-NTA after co-expression"}, "[2]": {"molecular_target": "MazF(His)6 (Escherichia coli, UniProt P0AE70 1-111)", "assay": "tricine SDS-PAGE of the purified complex, densitometry"}, "[3]": {"molecular_target": "T2, MazF (Escherichia coli, UniProt P0AE70 1-111)", "T2 sequence": "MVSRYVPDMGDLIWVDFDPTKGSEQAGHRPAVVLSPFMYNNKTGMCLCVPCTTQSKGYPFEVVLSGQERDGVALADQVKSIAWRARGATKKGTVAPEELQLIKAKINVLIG", "assay": "native PAGE, second dimension SDS-PAGE, densitometry"}}}
{"binder": "PemI (other) MHTTRLKRVGGSVMLTVPPALLNALSLGTDNEVGMVIDNGRLIVEPYRRPQYSLAELLAQCDPNAEISAEEREWLDAPATGQEEI", "values": [{"measurement": "binding result", "setting": "[1]", "value": "binds"}]}
{"binder": "MazE (other, also called antitoxin MazE; ChpAI) MIHSSVKRWGNSPAVRIPATLMQALNLNIDDEVKIDLVDGKLIIEPVRKEPVFTLAELVNDITPENLHENIDWGEPKDKEVW", "values": [{"measurement": "ratio of MazF(His)6 to MazE in the complex", "setting": "[2]", "value": "~2"}]}
{"binder": "(His)6MazE (other, also called wild-type (His)6MazE; MazE with N-terminal (His)6 tag) MIHSSVKRWGNSPAVRIPATLMQALNLNIDDEVKIDLVDGKLIIEPVRKEPVFTLAELVNDITPENLHENIDWGEPKDKEVW", "values": [{"measurement": "ratio of MazF to (His)6MazE in the complex", "setting": "[3]", "value": "~1.8"}]}
